Ends that are not written are not given here. cellulose = not defined here
T1: full-length subunit H (Vma13p), N-terminal MBP fusion (S. cerevisiae, UniProt P41807 1-478)
T1 construct: V-ATPase subunit H (Vma13p), S. cerevisiae, 478 amino acids; Construct provided by the laboratory of Dr. Patricia Kane; also called MBP-H; source: E. coli, purified (amylose column; ultrafiltration or size exclusion chromatography); not shown: MBP, N-terminal, kept
T1 sequence (looked up): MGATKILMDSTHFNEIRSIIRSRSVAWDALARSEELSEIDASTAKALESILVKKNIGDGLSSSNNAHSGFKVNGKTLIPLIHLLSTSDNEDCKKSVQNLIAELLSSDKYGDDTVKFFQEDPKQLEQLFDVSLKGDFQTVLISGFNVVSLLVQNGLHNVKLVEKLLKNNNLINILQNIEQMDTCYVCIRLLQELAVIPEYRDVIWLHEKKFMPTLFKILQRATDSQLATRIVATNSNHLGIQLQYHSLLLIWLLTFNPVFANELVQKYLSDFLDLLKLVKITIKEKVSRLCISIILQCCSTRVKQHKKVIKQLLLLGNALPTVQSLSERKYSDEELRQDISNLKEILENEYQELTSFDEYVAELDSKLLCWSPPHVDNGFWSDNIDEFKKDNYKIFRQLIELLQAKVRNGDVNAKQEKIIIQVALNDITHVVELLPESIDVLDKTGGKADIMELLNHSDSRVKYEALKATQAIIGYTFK

T2: subunit E (Vma4p), N-terminal MBP fusion (S. cerevisiae, UniProt P22203 1-233)
T2 construct: V-ATPase subunit E (Vma4p), S. cerevisiae, 233 amino acids; also called MBP-E; source: E. coli, purified (amylose column); not shown: MBP, N-terminal, kept
T2 sequence (looked up): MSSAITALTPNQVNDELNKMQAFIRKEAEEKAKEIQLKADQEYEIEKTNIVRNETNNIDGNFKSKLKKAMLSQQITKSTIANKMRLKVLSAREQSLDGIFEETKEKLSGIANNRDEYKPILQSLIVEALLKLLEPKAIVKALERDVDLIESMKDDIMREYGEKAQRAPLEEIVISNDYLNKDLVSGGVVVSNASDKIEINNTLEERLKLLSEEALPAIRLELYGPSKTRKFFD

T3: full-length subunit C, N-terminal MBP fusion (S. cerevisiae, UniProt P31412 1-392)
T3 construct: V-ATPase subunit C, S. cerevisiae, 392 amino acids; also called MBP-C; source: E. coli, purified (amylose column); not shown: MBP, N-terminal, kept
T3 sequence (looked up): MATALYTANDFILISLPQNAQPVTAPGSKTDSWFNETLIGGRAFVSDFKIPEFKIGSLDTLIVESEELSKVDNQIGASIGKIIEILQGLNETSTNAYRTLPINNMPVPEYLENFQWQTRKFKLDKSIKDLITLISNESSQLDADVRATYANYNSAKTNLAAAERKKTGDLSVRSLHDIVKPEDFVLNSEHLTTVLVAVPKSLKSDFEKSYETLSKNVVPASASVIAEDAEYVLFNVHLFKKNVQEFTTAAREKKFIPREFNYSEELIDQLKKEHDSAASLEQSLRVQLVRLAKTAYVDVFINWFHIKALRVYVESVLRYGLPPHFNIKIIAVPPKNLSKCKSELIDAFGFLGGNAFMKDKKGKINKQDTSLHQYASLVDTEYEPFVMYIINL

T4: C-terminal domain of subunit H (HCT), N-terminal MBP fusion (S. cerevisiae, UniProt P41807 353-478)
T4 construct: V-ATPase subunit H (Vma13p), S. cerevisiae, C-terminal globular domain 353-478 (126 amino acids); Construct provided by the laboratory of Dr. Patricia Kane; also called MBP-HCT; source: E. coli, purified (amylose column; ultrafiltration or size exclusion chromatography); not shown: MBP, N-terminal, kept
T4 sequence (looked up): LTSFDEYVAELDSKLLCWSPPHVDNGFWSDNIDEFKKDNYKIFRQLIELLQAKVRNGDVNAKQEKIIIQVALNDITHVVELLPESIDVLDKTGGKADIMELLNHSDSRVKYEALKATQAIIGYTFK


What was measured:
Assay in all cases: peptide or protein array; 20-mer peptides linked at their C-terminal end to cellulose and spotted in duplicate on glass slides; blocked in 2% nonfat milk; purified probe at 4 µM in TBS for 1 hour at 4°C; bound probe detected through MBP or FLAG with HRP-coupled antibody (chemiluminescence); hits by ANOVA (p 0.05, Bonferroni) and HCL in MeV, score of at least 1 in 75% of the spots
Conditions in all cases: both partners purified
[1] = target: T1, full-length subunit H (Vma13p), …
[2] = target: T2, subunit E (Vma4p), N-terminal MBP fusion
[3] = target: T3, full-length subunit C, N-terminal MBP …
[4] = target: T4, C-terminal domain of subunit H (HCT), …
[5] = target: maltose binding protein (MBP) only (UniProt P0AEX9 27-396 = MBP)

| binding result [3] | Binder | other results |
| --- | --- | --- |
| binds | FILISLPQNAQPVTAPGSKT-cellulose (peptide, UniProt P31412 11-30, looked up, reading uncertain, V-ATPase subunit C, S. cerevisiae, residues 11-30; source: synthetic peptide, spotted on glass slide array (Intavis)) [C(11-30)] | binding result [4]: binds |
| binds | TVRQGQVLEIRGDRAIVQVF-cellulose (peptide, UniProt P16140 61-80, looked up, reading uncertain, V-ATPase subunit B, S. cerevisiae, residues 61-80; source: synthetic peptide, spotted on glass slide array (Intavis)) [B(61-80)] |  |
| binds | RGEIFDMAFTGRYIILLMGV-cellulose (peptide, UniProt P32563 451-470, looked up, reading uncertain, source: synthetic peptide, spotted on glass slide array (Intavis)) [a(451-470)] |  |

The next lines start with the binder.

| Binder | binding result [3] | other results |
| --- | --- | --- |
| TVLVDTPLAPYFKNCFDTAE-cellulose (peptide, UniProt P32366 151-170, looked up, reading uncertain, source: synthetic peptide, spotted on glass slide array (Intavis)) [d(151-170)] |  | binding result [1]: binds; binding result [2]: binds |
| PEDFVLNSEHLTTVLVAVPK-cellulose (peptide, UniProt P31412 181-200, looked up, reading uncertain, source: synthetic peptide, spotted on glass slide array (Intavis)) [C(181-200)] | binds |  |
| GKKSDFTLYHTWPVRVPRPV-cellulose (peptide, UniProt P17255 205-224, looked up, reading uncertain, source: synthetic peptide, spotted on glass slide array (Intavis)) [A(205-224)] | binds | binding result [4]: binds |
| SYIDPEINDFRLTGLGRGGQ-cellulose (reading uncertain, The promiscuous, 'sticky' peptide that was detected by most probes including MBP alone; source: synthetic peptide, spotted on glass slide array (Intavis)) [D(111-130)] |  | binding result [5]: binds |
